The target of assay [1] is SQSTM1/p62 (UniProt Q13501 2-440, limits assumed). Put plainly: co-immunoprecipitation.
Assay [2] addresses T1, BECN1 (UniProt Q14457 1-450, limits assumed).
T1 construct: The ubiquitination co-IPs used endogenous protein from T-REx-293 and KYSE150 cells; also called Beclin 1; Beclin 1/BECN1
Put plainly: co-immunoprecipitation.

T1 sequence (Q14457 whole entry): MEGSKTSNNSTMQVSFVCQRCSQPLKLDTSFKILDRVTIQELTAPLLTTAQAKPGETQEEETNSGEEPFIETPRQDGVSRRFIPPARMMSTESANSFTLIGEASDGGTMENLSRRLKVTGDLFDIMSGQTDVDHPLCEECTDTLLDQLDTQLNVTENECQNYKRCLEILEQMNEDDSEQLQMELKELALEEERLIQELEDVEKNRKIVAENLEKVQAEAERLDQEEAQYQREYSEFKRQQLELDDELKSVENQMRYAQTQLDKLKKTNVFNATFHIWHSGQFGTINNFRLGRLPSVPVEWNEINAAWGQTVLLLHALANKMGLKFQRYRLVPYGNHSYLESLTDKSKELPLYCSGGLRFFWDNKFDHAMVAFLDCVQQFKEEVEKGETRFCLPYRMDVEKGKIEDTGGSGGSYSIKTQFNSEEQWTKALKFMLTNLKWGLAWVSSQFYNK

B1: SP0495 (small protein of KIAA0495), encoded by KIAA0495-ORF2 (other)
chain: MCLLSSSAASDLAATSLTAHPCHPPLPRQPQPQLILSGSPSIGTVPPPAVGHTSLLPVNPPAISTTTSDLSAREDATPSASTGHLSVFPAFQVKIPAVPSEQTSQSFSEASHRVLPGGGPRCSRDFGAGVAGHLGLGIFGVGFGSPALLQSVVDENSCCLLYVVEDQLCDVEQAFRAEHLGQHQSGSGTGCRHCPQRPAAL
notes: The 1-18 transmembrane/signal peptide domain is only a bioinformatic prediction and was not removed; also called KIAA0495-ORF2/SP0495; KIAA0495-ORF2 protein
Regarding B1, the binding result in assay [1] and in assay [2] was “no binding” in each case.

The record behind these values is patent publication US20250215499A1 (CHINESE UNIVERSITY OF HONG KONG, published 2025).
